Measurements from US20030229203A1.

Key:
CCR1 = target: T1, CCR1 (UniProt P32246); assay: cell-based or functional assay
T1 sequence (looked up): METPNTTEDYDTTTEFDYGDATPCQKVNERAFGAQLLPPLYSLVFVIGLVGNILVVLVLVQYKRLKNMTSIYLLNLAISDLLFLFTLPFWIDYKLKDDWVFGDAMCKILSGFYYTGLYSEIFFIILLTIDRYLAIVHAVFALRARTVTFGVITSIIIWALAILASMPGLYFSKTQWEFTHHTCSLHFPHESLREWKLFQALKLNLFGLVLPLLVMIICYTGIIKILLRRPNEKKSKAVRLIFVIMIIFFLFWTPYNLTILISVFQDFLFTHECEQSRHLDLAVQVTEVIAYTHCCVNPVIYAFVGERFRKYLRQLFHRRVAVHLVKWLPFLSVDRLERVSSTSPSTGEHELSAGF

CCR5 (human) = CCR5 (human) (UniProt P51681); assay: cell-based or functional assay
CCR5 (human), sequence (P51681 whole entry): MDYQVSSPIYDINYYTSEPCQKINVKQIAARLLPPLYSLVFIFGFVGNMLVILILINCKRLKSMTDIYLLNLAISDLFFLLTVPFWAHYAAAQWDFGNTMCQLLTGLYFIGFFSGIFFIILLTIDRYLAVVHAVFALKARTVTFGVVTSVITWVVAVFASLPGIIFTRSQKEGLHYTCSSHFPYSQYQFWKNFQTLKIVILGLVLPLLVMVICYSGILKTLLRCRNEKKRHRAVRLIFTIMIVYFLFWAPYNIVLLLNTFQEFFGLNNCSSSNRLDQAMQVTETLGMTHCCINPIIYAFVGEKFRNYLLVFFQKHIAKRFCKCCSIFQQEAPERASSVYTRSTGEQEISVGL

RANTES(3-68), sequence (P13501 26-91 limits assumed): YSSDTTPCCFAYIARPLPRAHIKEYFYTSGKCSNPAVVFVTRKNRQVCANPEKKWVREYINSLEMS
RANTES(1-68), sequence (P13501 24-91): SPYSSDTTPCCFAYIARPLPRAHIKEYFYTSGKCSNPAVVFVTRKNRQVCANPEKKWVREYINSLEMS

Substance | amount required to produce a detectable Ca2+ response, relative to RANTES(1-68) (Fura-2, HOS-CD4 cells expressing CCR1) (times that for RANTES(1-68)) (CCR1) | concentration at which the Ca2+ response saturated (Fura-2, HOS-CD4 cells expressing CCR1) (CCR1) [nM] | concentration sufficient to induce a maximal Ca2+ response (Fura-2, HEK-293 cells expressing CCR5) (CCR5 (human)) [nM]
RANTES(3-68) (from UniProt P13501 26-91) (ligand) | 100 | > 200 | 10
RANTES(1-68) (from UniProt P13501 24-91) (ligand) | – | 50 | 10
